According to patent US20210032352A1 (ANTERA THERAPEUTICS, published 2021):

Key:
FZD6 ECD, Fc-tagged = biological target: T1, FZD6 ECD, Fc-tagged (human, UniProt O60353 19-132); assay: kinetic table (called BLI in paragraph 35)
T1 construct: range 19-132; Made in Expi293 cells; single protomer species purified by size exclusion; not shown: human IgG1 Fc of the pFUSE-hIgG1-Fc2 vector (Invivogen)
T1 sequence (looked up): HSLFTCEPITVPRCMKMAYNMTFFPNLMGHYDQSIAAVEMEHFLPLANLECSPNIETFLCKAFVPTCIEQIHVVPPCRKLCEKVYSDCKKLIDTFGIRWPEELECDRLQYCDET

FZD9 CRD, Fc-tagged = biological target: T2, FZD9 CRD, Fc-tagged (human, UniProt O00144 23-187); assay: kinetic table (called BLI in paragraph 35)
T2 construct: domain: CRD; Bought; not shown: Fc tag of the purchased fusion
T2 sequence (looked up): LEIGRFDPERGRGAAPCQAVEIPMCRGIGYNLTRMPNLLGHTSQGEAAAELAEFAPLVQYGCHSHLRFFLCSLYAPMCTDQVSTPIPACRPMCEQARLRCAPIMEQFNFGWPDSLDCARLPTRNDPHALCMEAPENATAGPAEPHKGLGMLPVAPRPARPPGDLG

FZD10 CRD, Fc-tagged = biological target: T3, FZD10 CRD, Fc-tagged (human, UniProt Q9ULW2 21-161); assay: kinetic table (called BLI in paragraph 35)
T3 construct: domain: CRD; Bought; not shown: Fc tag of the purchased fusion
T3 sequence (looked up): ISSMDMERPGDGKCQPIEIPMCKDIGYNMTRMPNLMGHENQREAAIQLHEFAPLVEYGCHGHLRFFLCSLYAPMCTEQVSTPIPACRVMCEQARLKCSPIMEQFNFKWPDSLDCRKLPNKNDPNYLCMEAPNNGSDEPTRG

FZD1 CRD, Fc-tagged [1] = biological target: T4, FZD1 CRD, Fc-tagged (human, UniProt Q9UP38 70-250); assay: kinetic table (called BLI in paragraph 35); quantity name and unit not printed in the table: KD in M follows from FIG. 12A, same values in nM
T4 construct: domain: CRD; Bought; not shown: Fc tag of the purchased fusion

FZD2 CRD, Fc-tagged [2] = biological target: T5, FZD2 CRD, Fc-tagged (human, UniProt Q14332 24-190); assay: as above
T5 construct: domain: CRD; Bought; not shown: Fc tag of the purchased fusion

FZD1 CRD, Fc-tagged [3] = biological target: T4, FZD1 CRD, Fc-tagged; assay: kinetic table (called BLI in paragraph 170); the row labels kd and ka are interchanged on the sheet: the KD row equals the 10^-3 row divided by the 10^5 row
FZD2 CRD, Fc-tagged [4] = biological target: T5, FZD2 CRD, Fc-tagged; assay: as above
FZD7 CRD, Fc-tagged = FZD7 CRD, Fc-tagged (human, UniProt O75084 33-185); assay: as above
[5] = biological target: T6, human LRP6 ECD, Fc-tagged (human, UniProt O75581 20-1370); assay: as above
T6 construct: extracellular domain; Bought; also called LRP co-receptor; not shown: Fc tag of the purchased fusion
T6 sequence (looked up): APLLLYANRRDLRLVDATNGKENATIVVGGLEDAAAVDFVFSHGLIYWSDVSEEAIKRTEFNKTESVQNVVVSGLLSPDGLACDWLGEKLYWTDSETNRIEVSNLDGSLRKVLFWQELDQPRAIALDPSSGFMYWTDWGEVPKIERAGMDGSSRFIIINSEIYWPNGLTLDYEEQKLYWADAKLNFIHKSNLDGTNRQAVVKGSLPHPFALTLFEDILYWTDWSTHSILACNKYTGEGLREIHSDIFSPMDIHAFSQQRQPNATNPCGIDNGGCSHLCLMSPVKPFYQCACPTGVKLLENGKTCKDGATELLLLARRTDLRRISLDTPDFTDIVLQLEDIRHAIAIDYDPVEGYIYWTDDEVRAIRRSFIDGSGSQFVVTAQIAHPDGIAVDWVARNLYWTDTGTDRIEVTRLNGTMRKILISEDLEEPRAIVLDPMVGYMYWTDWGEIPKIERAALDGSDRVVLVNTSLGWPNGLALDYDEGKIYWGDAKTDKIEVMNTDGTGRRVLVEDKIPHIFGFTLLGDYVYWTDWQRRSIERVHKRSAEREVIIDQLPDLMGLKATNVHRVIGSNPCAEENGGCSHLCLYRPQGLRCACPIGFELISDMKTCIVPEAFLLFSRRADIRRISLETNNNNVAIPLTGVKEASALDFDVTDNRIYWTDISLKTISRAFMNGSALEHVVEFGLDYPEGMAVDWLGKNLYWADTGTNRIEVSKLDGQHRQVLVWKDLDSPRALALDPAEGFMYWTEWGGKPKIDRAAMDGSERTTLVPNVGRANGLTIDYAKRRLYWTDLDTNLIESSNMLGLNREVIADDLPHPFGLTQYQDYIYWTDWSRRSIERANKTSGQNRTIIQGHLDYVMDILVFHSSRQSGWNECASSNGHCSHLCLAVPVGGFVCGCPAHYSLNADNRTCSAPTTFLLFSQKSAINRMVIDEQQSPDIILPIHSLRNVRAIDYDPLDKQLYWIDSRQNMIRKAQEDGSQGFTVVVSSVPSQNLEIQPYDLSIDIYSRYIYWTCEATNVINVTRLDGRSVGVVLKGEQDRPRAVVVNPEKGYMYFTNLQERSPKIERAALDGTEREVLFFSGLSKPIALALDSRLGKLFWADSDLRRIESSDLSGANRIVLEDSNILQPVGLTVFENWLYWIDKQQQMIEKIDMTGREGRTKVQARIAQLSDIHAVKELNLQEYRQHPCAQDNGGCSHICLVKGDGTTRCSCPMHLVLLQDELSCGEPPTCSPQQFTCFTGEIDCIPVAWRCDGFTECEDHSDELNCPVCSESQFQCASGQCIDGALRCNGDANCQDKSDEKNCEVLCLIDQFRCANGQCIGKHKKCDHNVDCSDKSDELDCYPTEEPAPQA

T4 sequence (Q9UP38 70-250): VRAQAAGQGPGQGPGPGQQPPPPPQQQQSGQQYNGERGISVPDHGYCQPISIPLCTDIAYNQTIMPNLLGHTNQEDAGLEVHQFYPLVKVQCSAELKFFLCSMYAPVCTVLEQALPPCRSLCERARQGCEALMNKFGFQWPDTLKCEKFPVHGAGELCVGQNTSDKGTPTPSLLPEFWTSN

B1: F^P+P-L6^1+3 (5019-K/H-2539-2542) (bispecific antibody)
chain 1: EVQLVESGGGLVQPGGSLRLSCAASGFNIGSSSIHWVRQAPGKGLEWVASIYSAFASTSYADSVKGRFTISADTSKNTAYLQMNSLRAEDTAVYYCARYHFPFGFALDYWGQGTLVTVSSGGGGSDIQMTQSPSSLSASVGDRVTITCRASQSVSSAVAWYQQKPGKAPKLLIYSASSLYSGVPSRFSGSRSGTDFTLTISSLQPEDFATYYCQQGVYLFTFGQGTKVEIKLEDKTHTKVEPKTSDKTHTCPPCPAPELLGGPSVFLFPPKPKDTLMISRTPEVTCVVVDVSHEDPEVKFNWYVDGVEVHNAKTKPREEQYNSTYRVVSVLTVLHQDWLNGKEYKCKVSNKALPAPIEKTISKAKGQPREPMVFDLPPSREEMTKNQVSLWCMVKGFYPSDIAVEWESNGQPENNYKTTPPVLDSDGSFFLYSKLTVDKSRWQQGNVFSCSVMHEALHNHYTQKSLSLSPGKSGSETPGTSESATPESGGGEVQLVESGGGLVQPGGSLRLSCAASGFNISYSSIHWVRQAPGKGLEWVAYISSYYGYTYYADSVKGRFTISADTSKNTAYLQMNSLRAEDTAVYYCARAHYFPWAGAMDYWGQGTLVTVSSGGGGSDIQMTQSPSSLSASVGDRVTITCRASQSVSSAVAWYQQKPGKAPKLLIYSASSLYSGVPSRFSGSRSGTDFTLTISSLQPEDFATYYCQQYYWPITFGQGTKVEIK
chain 2: EVQLVESGGGLVQPGGSLRLSCAASGFNIGSSSIHWVRQAPGKGLEWVASIYSAFASTSYADSVKGRFTISADTSKNTAYLQMNSLRAEDTAVYYCARYHFPFGFALDYWGQGTLVTVSSGGGGSDIQMTQSPSSLSASVGDRVTITCRASQSVSSAVAWYQQKPGKAPKLLIYSASSLYSGVPSRFSGSRSGTDFTLTISSLQPEDFATYYCQQGVYLFTFGQGTKVEIKLEDKTHTKVEPKSSDKTHNCPPCPAPELLGGPSVFLFPPKPKDTLMISRTPEVTCVVVDVSHEDPEVKFNWYVDGVEVHNAKTKPREEQYNSTYRVVSVLTVLHQDWLNGKEYKCKVSNKALPAPIEKTISKAKGQPREPQVYTLPPIRELMTSNQVSLSCAVKGFYPSDIAVEWESNGQPENNYKTTPPVLDSDGSFFLVSKLTVDKSRWQQGNVFSCSVMHEALHNHYTQKSLSLSPGKSGSETPGTSESATPESGGGEVQLVESGGGLVQPGGSLRLSCAASGFNISSYYIHWVRQAPGKGLEWVASIYSSYGYTSYADSVKGRFTISADTSKNTAYLQMNSLRAEDTAVYYCARTVRGSKKPYFSGWAMDYWGQGTLVTVSSGGGGSDIQMTQSPSSLSASVGDRVTITCRASQSVSSAVAWYQQKPGKAPKLLIYSASSLYSGVPSRFSGSRSGTDFTLTISSLQPEDFATYYCQQYSWGPFTFGQGTKVEIK
- binding result (FZD6 ECD, Fc-tagged): no binding
- binding result (FZD9 CRD, Fc-tagged): no binding
- binding result (FZD10 CRD, Fc-tagged): no binding
- Kd (FZD1 CRD, Fc-tagged [1]): < 0.01 nM
- Kd (FZD2 CRD, Fc-tagged [2]): 0.039 nM
- koff (FZD1 CRD, Fc-tagged [3]): < 1e-06 s⁻¹
- kon (FZD1 CRD, Fc-tagged [3]): 395000 M⁻¹ s⁻¹
- koff (FZD2 CRD, Fc-tagged [4]): 1.9e-05 s⁻¹
- kon (FZD2 CRD, Fc-tagged [4]): 479000 M⁻¹ s⁻¹
- koff (FZD7 CRD, Fc-tagged): 2.9e-05 s⁻¹
- kon (FZD7 CRD, Fc-tagged): 509000 M⁻¹ s⁻¹
- koff [5]: 0.00181 s⁻¹
- kon [5]: 152000 M⁻¹ s⁻¹
